Drawing on article PMC4578157, this text covers Kd for 3 substances.

The assay deals with Duffy antigen receptor for chemokines (DARC) (human) (UniProt Q16570). Briefly: SPR. (Surface plasmon resonance follows binding to a sensor surface in real time, without labels.)

The Kd is the free concentration of one partner at which half of the binding sites on the other are occupied at equilibrium, for simple one-to-one binding. The low end stands for higher affinity, the high end for lower affinity.

Regarding “HlgA (from UniProt P0A074 30-309) (natural protein)”, the equilibrium dissociation constant (Kd) came out at 29.2 nM. In other words, the double-digit nanomolar range. In turn, “HlgC (from UniProt Q07227 30-315) (natural protein)” returned a dissociation constant (Kd) of 229 nM. This Kd lies about 7.8-fold higher than the previous one. The value for “LukE (from UniProt O54081 29-314) (natural protein)” was 56.4 nM.
